How the values were obtained:
[1] = target: T1, GEF-H1 peptide, amino acids 807-824 (unphosphorylated)
T1 chain: RRRSLPAGDALYLSFNPP

[2] = target: T2, GEF-H1 peptide 807-824 with phospho-serine at position 810
T2 chain: RRRSLPAGDALYLSFNPP

GST-GEF-H1S (aa763-921) = target: T3, GST-GEF-H1S (aa763-921)
T3 chain: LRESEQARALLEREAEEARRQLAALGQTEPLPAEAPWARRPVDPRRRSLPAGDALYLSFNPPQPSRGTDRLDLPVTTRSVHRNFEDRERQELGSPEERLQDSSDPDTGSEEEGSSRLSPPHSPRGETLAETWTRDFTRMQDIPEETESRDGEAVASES

[3] = target: GST-Maguin-2-like fusion protein (amino acids 385-555) [GST: P08515]
Chain of GST-Maguin-2-like fusion protein (amino acids 385-555) [GST: P08515] (P08515 whole entry, looked up, the tested form may be a part): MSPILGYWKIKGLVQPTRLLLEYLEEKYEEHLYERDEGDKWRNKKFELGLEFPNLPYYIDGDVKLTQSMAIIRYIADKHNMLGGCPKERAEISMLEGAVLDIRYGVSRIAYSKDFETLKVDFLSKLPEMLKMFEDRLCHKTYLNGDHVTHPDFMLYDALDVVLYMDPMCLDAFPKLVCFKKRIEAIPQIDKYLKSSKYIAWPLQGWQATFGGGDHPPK

[4] = target: GST (Glutathione-S-transferase) [GST: P08515]
Chain of GST (Glutathione-S-transferase) [GST: P08515] (P08515 whole entry, the tested form may be a part): as the sequence (P08515 whole entry, looked up, the tested form may be a part) above

[5] = target: T4, GEF-H1 peptide, amino acids 55-72
T4 chain: RQSLLGSRRGRSSLSLAK

B1: Glutathione-s-transferase (GST) fused PAK4 (residues 291-591) (protein)
chain: SPQREPQRVSHEQFRAALQLVVDPGDPRSYLDNFIKIGEGSTGIVCIATVRSSGKLVAVKKMDLRKQQRRELLFNEVVIMRDYQHENVVEMYNSYLVGDELWVVMEFLEGGALTDIVTHTRMNEEQIAAVCLAVLQALSVLHAQGVIHRDIKSDSILLTHDGRVKLSDFGFCAQVSKEVPRRKSLVGTPYWMAPELISRLPYGPEVDIWSLGIMVIEMVDGEPPYFNEPPLKAMKMIRDNLPPRLKNLHKVSPSLKGFLDRLLVRDPAQRATAAELLKHPFLAKAGPPASIVPLMRQNRTR
Km (in vitro kinase assay) [1]: also a high affinity substrate for PAK4 with a similar Km for PAK4 as the GST-GEF-H1 (793-921) fusion protein | phosphorylation in in vitro kinase assays [1]: are phosphorylated by PAK4 | phosphorylation in an in vitro kinase assay [2]: Peptides with phospho-serine at position 810 were no longer substrates for PAK4 | Km (in vitro kinase assay) (GST-GEF-H1S (aa763-921)): Km is the 1 to 5 uM range | phosphorylation in an in vitro kinase reaction (SDS-PAGE, autoradiograph) (GST-GEF-H1S (aa763-921)): The autoradiograph showed phosphorylation of the GEF-H1S polypeptide | phosphorylation in an in vitro kinase assay [3]: weakly phosphorylated the GST-Maguin-2-like fusion protein | phosphorylation in an in vitro kinase assay [4]: PAK4 fails to phosphorylate the GST control | phosphorylation in an in vitro kinase reaction (SDS-PAGE, autoradiograph) [4]: no phosphorylation of the fusion partner GST | phosphorylation in in vitro kinase assays [5]: are phosphorylated by PAK4
